Data as given in patent publication US20120264231A1, “ASSAY FOR ORAI CALCIUM CHANNEL REGULATORS” (IMMUNE DISEASE INSTITUTE, INC., priority 2009, published 2012).

What follows are substances tested against T1, human ORAI1 (65-301) (Homo sapiens, UniProt Q96D31, E106Q/N223A) (assay: Pichia membrane flotation assay, membranes containing ORAI1 (65-301)). Conditions: sucrose gradient, Western blotting.
T1 construct: human ORAI1 (65-301) with an N-terminal FLAG tag; made in house; host or cells: Pichia pastoris GS115 (microsomal membranes)
T1 sequence (Q96D31 65-301 E106Q/N223A): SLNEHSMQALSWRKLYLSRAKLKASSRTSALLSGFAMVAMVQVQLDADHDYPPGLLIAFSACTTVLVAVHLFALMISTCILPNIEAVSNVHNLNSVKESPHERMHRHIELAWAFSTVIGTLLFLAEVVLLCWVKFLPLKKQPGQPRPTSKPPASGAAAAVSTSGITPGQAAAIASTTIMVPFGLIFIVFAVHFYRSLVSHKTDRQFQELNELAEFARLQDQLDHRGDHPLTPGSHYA
Assay type: binding
Procedure: A membrane flotation assay was used to evaluate binding of these recombinant STIM 1 proteins to ORAI1. For these experiments ORAI1 (65-301) was expressed, an N-terminally truncated ORAI1 protein that forms functional Ca^2+ channels in mammalian cells (Li, Z., et al., J Biol Chem 282, 29448-29456 (2007)), in the yeast Pichia pastoris. Microsomal membranes were prepared from P pastoris expressing ORAI1 (65-301), layered at the bottom of a discontinuous sucrose gradient, and centrifuged. After centrifugation, the recombinant ORAI 1 was recovered near the top of the gradient in the fraction visually identified as containing membranes (FIG. 2A), as expected for an integral membrane protein.
STIM 1, ORAI 1, and D3 cpV/D4 cpV expression constructs were engineered as described herein. Recombinant STIM 1 fragments were expressed in E coli, purified, and characterized by CD spectroscopy and SEC-MALLS. Binding of STIM 1 fragments to ORAI1 channels in their normal bilayer environment was assessed in a flotation assay, using microsomal membranes prepared from the yeast P pastoris and containing human ORAI1 (65-301). Binding of STIM1 fragments to recombinant ORAI^CT was assessed in a pulldown assay using GST-tagged ORAI1^CT.
P pastoris strain GS115 was transformed with SalI-linearized pPIC3.5K-ORAI1 by electroporation and selected on plates lacking histidine. H is transformants were further grown in the presence of 0.25-4 mg/mL G418 to select for yeast that had integrated multiple copies of pPIC3.5K into the genome. Selected colonies capable of growth on 0.5-4 mg/mL G418 were grown in small-scale culture, induced with methanol as detailed below, and their level of ORAI expression determined by Western blotting for the FLAG tag. P pastoris transformants were grown in minimal dextrose medium lacking histidine and induced with 0.5% methanol for 6-18 h. Cells were pelleted at 3,000×g for 15 min at 4° C. and resuspended in breaking buffer containing 50 mM sodium phosphate, 1 mM TCEP, 1 mM EDTA, 5% glycerol and complete protease inhibitor cocktail (Roche). […]

Substance	binding to ORAI1 in membrane flotation
STIM1 (233-463): truncated mouse STIM1 cytoplasmic fragment, residues 233-463, His-tagged recombinant protein	did not bind detectably
STIM1 (233-498): truncated mouse STIM1 cytoplasmic fragment, residues 233-498, His-tagged recombinant protein	clearly bound ORAI
STIM1^CT: cytoplasmic region of STIM1, mouse residues 233-685, His-tagged recombinant protein expressed in E coli	rose with the membranes into the upper part of the gradient
